Experimental data published in article PMC3162602, “Laforin, a Dual Specificity Phosphatase Involved in Lafora Disease, Is Present Mainly as Monomeric Form with Full Phosphatase Activity” (PLoS ONE, 2011).
Blank lines part the entries; values can stand above or below the molecule they belong to.

Experiments:
[1] = target: Cm-laforin-HIS6 (Cyanidioschyzon merolae); assay: SEC; SEX4-HIS6 on Superdex-75 and Cm-laforin-HIS6 on Superdex-200 after Ni-NTA; multiple peaks
Hs-laforin-HIS6 (human) = Hs-laforin-HIS6 (human) (UniProt O95278); assay: SEC; Ni-NTA-purified Hs-laforin-HIS6 on HiLoad 16/60 Superdex 75; two peaks, A (dimer) and B (monomer)
[2] = target: the molecule itself; assay: SEC; SEX4-HIS6 on Superdex-75 and Cm-laforin-HIS6 on Superdex-200 after Ni-NTA; multiple peaks

stoichiometry N [1]: 2
Molecule: Cm-laforin-HIS6 (enzyme)

stoichiometry N (Hs-laforin-HIS6 (human)): 2
Molecule: Hs-laforin-HIS6 (from UniProt O95278 1-331) (enzyme)

B1: At-SEX4-HIS6(Δ81) (enzyme, Arabidopsis thaliana, UniProt Q9FEB5 82-379, looked up)
chain: QAMGAVLTYRHELGMNYNFIRPDLIVGSCLQTPEDVDKLRKIGVKTIFCLQQDPDLEYFGVDISSIQAYAKKYSDIQHIRCEIRDFDAFDLRMRLPAVVGTLYKAVKRNGGVTYVHCTAGMGRAPAVALTYMFWVQGYKLMEAHKLLMSKRSCFPKLDAIRNATIDILTGLKRKTVTLTLKDKGFSRVEISGLDIGWGQRIPLTLDKGTGFWILKRELPEGQFEYKYIIDGEWTHNEAEPFIGPNKDGHTNNYAKVVDDPTSVDGTTRERLSSEDPELLEEERSKLIQFLETCSEAEV
notes: SEX4 (Starch EXcess4), Arabidopsis thaliana glucan phosphatase; construct pET21a At-SEX4-HIS6(Δ81), printed as a 32 kDa protein; Δ81 read as lacking the first 81 residues; also called Starch EXcess4; source: bacteria (E. coli), purified (Ni-NTA, Superdex-75)
stoichiometry N [2]: 2
